In US20220153864A1 (Pieris, published 2022):

Assays:
[1] = target: T1, human CD137 expressed on cells (Flp-In-CHO::huCD137; NFkB-luc2/CD137 Jurkat cells) (human, UniProt Q07011 24-255); assay: cell-based or functional assay
[2] = target: T2, human GPC3 expressed on cells (SK-Hep1::huGPC3; HepG2, Hep3B and MKN-45 tumor cells) (human, UniProt P51654 25-554); assay: flow cytometry on HepG2 tumor cells (GPC3 high)
T2 construct: whole, on cells; also called GPC3-positive tumor cells; human GPC3-expressing cells
Method: (§1) 5×10⁴ cells per well were incubated for 1 h in ice-cold PBS containing 5% fetal calf serum (PBS-FCS). A dilution series of the testing molecule were added to the cells and incubated for 1 h on ice. Cells were washed twice with PBS and then incubated with a goat anti-hlgG Alexa647-labeled antibody or goat anti-hlgG Alexa488-labeled antibody for 30 min on ice. Cells were subsequently washed and analyzed using iQue Flow cytometer (Intellicyte Screener). Mean geometric fluorescent signals were plotted and fitted with Graphpad software. The geometric means of the fluorescence intensity were used to calculate EC₅₀ values using a four-parameter logistic regression with bottom fixed to background.
For flow cytometric analysis, tumor cell lines with different GPC3 expression levels (high to moderate expression: HepG2>Hep3B>MKN-45) and GPC3 negative cell line NCI-N87 were incubated with an exemplary fusion protein SEQ ID NOs: 87 and 82, the GPC3 antibody or the CD137 specific lipocalin mutein (Fc fusion) as included in the fusion protein (SEQ ID NOs: 81 and 82 and SEQ ID NO: 98, respectively), a reference CD137 antibody SEQ ID NOs: 26 and 27, or an isotype control (SEQ ID NO: 24 and 25), and detected using a fluorescently labeled anti-human IgG antibody as described in Example 6.

[3] = target: T3, recombinant human GPC3 (huGPC3) (R&D Systems) (human, UniProt P51654 25-559); assay: ELISA, huGPC3 coated, detection anti-human IgG Fc-HRP
T3 construct: also called biotinylated huGPC3
Method: Recombinant huGPC3 (R&D Systems) at the concentration of 1 μg/mL in PBS was coated overnight on microtiter plates at 4° C. After five washes with 100 μL PBS-0.05% T (PBS supplemented with 0.05% (v/v) Tween 20), the plates were blocked with 2% BSA (w/v) in PBS-0.1% T (PBS-0.1% T-2% BSA) for 1 h at room temperature. After washing with 100 μL PBS-0.05% T (PBS supplemented with 0.05% (v/v) Tween 20) five times, exemplary fusion proteins (SEQ ID NOs: 87 and […] and CD137Ac1-Fusion 1 to 7) or the GPC3 antibody as include in the fusion proteins (SEQ ID NOs: 81 and 82) at different concentrations were added to the wells and incubated for 1 h at room temperature, followed by another wash step. Bound molecules under study were detected by incubation with 1:5000 diluted anti-human IgG Fc-HRP (Jackson Laboratory) in PBS-0.1% T-2% BSA. After an additional wash step, fluorogenic HRP substrate (QuantaBlu, Thermo) was added to each well and the fluorescence intensity was detected using a fluorescence microplate reader.
Exemplary results are depicted in FIG. 2A-2D, together with the fit curves resulting from a 1:1 binding sigmoidal fit, where the EC₅₀ value and the maximum signal were free parameters, and the slope was fixed to unity.

[4] = target: T4, huCD137-His (recombinant human CD137 with C-terminal polyhistidine tag, R&D Systems) (human, UniProt Q07011 24-186); assay: dual-binding ELISA: huCD137-His coated, fusion titrated, detection with biotinylated huGPC3
T4 construct: also called biotinylated huCD137-His; not shown: C-terminal polyhistidine tag
Method: Recombinant huCD137-His (R&D Systems) in PBS (1 μg/mL) was coated overnight on microtiter plates at 4° C. The plates were washed five times after each incubation step with 100 μL PBS-0.05% T. The plates were blocked with PBS-0.1% T-2% BSA for 1 h at room temperature and subsequently washed again. Different concentrations of tested fusion proteins were added to the wells and incubated for 1 h at room temperature, followed by a wash step. Subsequently, biotinylated huGPC3 was added at a constant concentration of 1 μg/mL in PBS-0.1% T-2% BSA for 1 h. After washing, a 1:5000 dilution of ExtrAvidin-HRP (Sigma-Aldrich) in PBS-0.1% T-2% BSA was added to the wells and incubated for 1 h. After an additional wash step, fluorogenic HRP substrate (QuantaBlu, Thermo) was added to each well, and the fluorescence intensity was detected using a fluorescence microplate reader.
Exemplary dual binding data are shown in FIG. 3, together with the fit curves resulting from a 1:1 sigmoidal binding fit, where the EC₅₀ value and the maximum signal were free parameters, and the slope was fixed to unity.

[5] = target: T1, human CD137 expressed on cells …; assay: flow cytometry, CHO cells transfected with human CD137, detection labelled anti-human IgG, GeoMean BL1-H [lower graph]
Method: (§2) For flow cytometric analysis, respective cell lines were incubated with an exemplary fusion protein (SEQ ID NOs: 87 and 82), the GPC3 antibody or the CD137 specific lipocalin mutein (Fc fusion) as included in the fusion protein (SEQ ID NOs: 81 and 82 and SEQ ID NO: 98, respectively), a reference CD137 antibody SEQ ID NOs: 26 and 27, or an isotype control (SEQ ID NOs: 24 and 25) and detected using a fluorescently labeled anti-human IgG antibody in FACS analysis as described in the following:
as §1

[6] = target: T2, human GPC3 expressed on cells …; assay: flow cytometry, SK-Hep1 cells transfected with human GPC3, detection labelled anti-human IgG, GeoMean RL1-H [upper graph]
Method: as §2, §1

T1 sequence (Q07011 24-255): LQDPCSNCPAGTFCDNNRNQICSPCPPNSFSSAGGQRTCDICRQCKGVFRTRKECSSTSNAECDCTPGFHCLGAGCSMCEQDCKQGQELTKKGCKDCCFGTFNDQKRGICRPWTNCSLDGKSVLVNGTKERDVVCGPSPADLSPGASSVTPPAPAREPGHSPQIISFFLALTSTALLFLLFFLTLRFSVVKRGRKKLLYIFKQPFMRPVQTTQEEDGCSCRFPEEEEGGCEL
T2 sequence (P51654 25-554 limits assumed): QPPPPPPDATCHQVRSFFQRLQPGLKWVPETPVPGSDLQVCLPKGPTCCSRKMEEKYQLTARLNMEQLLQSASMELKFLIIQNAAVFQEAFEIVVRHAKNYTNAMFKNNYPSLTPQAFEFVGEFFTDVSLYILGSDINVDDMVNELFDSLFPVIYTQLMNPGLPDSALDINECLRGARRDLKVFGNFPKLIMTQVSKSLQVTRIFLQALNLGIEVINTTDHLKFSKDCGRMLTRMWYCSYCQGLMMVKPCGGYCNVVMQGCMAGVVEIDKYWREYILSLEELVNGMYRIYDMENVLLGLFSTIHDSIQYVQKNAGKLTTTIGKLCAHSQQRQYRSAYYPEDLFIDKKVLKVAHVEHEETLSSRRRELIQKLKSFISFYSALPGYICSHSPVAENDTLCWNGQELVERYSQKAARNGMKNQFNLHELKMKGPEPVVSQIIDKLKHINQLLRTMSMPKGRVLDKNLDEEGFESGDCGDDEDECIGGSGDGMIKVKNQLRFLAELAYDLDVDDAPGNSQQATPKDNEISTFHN
T3 sequence (P51654 25-559 limits assumed): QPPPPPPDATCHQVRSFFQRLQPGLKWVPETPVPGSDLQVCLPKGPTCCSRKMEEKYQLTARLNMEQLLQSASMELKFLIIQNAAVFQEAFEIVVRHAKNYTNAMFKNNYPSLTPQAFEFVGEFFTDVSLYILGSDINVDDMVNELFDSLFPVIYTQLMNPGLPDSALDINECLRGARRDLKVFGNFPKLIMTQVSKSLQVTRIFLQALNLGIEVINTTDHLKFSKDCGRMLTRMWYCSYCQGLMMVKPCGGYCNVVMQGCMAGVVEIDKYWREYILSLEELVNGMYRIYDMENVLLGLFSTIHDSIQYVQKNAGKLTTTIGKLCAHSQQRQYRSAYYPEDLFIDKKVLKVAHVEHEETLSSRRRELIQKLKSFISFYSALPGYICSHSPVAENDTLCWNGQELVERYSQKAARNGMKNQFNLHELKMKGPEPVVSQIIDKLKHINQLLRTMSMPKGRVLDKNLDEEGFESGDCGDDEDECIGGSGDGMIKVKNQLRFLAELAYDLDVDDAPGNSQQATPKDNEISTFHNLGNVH

EC50, CD137 Bioassay (NFkB-luc2/CD137 Jurkat cells co-cultured with Hep3B) [1]: 0.78 nM
EC50, CD137 Bioassay (NFkB-luc2/CD137 Jurkat cells co-cultured with HepG2) [1]: 0.38 nM
EC50 [2]: 20.6 nM
EC50 [3]: 0.19 nM
EC50 [4]: 4.2 nM
EC50 (read off the curve) [5]: ~20 nM
EC50 (read off the curve) [6]: ~5 nM
B1: fusion protein SEQ ID NOs: 87 and 82 (bispecific antibody, human IgG4 S228P, kappa, F234A L235A)
heavy: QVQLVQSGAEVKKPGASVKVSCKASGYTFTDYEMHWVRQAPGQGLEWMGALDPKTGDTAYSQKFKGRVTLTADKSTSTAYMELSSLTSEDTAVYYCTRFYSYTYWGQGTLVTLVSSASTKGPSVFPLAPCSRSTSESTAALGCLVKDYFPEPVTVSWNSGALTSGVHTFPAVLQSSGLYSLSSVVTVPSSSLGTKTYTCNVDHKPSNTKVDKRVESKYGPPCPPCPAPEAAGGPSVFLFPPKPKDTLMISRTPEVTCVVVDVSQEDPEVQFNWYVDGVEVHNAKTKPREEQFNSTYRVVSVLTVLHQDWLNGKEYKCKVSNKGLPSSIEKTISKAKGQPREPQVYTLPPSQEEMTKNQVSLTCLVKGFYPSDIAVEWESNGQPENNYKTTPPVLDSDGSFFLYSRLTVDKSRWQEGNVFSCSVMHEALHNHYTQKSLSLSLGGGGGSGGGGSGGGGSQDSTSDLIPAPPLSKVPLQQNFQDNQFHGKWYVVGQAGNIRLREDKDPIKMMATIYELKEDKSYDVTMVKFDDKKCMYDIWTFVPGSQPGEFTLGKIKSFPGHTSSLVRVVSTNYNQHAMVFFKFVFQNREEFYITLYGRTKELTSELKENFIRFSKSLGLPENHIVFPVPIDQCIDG
light: DVVMTQSPLSLPVTPGEPASISCRSSQSLVHSNRNTYLHWYLQKPGQSPQLLIYKVSNRFSGVPDRFSGSGSGTDFTLKISRVEAEDVGVYYCSQNTHVPPTFGQGTKLEIKRTVAAPSVFIFPPSDEQLKSGTASVVCLLNNFYPREAKVQWKVDNALQSGNSQESVTEQDSKDSTYSLSSTLTLSKADYEKHKVYACEVTHQGLSSPVTKSFNRGEC
notes: also called exemplary fusion protein
